In patent publication US6955900B1, “Methods for producing polypeptide binding sites, monoclonal antibodies and compositions thereof” (The Scripps Research Institute, priority 1993, dated 2005):
Where two headings read alike, the source gives them in different places. Bridge positions count the residues as written; N and C are the ends. Ends that are not written are not given here.

Legend:
αvβ3 [1] = target: T1, αvβ3 (Homo sapiens, UniProt P05106+P06756); assay: purified ligand-receptor binding assay, inhibition of 125I-vitronectin binding to αvβ3; settings: for blocking of vitronectin (ligand) binding to αvβ3: result in words
T1 construct: human placentas were obtained, cut into small pieces and extracted; from tissue
T1 sequence (P06756 31-889 limits assumed): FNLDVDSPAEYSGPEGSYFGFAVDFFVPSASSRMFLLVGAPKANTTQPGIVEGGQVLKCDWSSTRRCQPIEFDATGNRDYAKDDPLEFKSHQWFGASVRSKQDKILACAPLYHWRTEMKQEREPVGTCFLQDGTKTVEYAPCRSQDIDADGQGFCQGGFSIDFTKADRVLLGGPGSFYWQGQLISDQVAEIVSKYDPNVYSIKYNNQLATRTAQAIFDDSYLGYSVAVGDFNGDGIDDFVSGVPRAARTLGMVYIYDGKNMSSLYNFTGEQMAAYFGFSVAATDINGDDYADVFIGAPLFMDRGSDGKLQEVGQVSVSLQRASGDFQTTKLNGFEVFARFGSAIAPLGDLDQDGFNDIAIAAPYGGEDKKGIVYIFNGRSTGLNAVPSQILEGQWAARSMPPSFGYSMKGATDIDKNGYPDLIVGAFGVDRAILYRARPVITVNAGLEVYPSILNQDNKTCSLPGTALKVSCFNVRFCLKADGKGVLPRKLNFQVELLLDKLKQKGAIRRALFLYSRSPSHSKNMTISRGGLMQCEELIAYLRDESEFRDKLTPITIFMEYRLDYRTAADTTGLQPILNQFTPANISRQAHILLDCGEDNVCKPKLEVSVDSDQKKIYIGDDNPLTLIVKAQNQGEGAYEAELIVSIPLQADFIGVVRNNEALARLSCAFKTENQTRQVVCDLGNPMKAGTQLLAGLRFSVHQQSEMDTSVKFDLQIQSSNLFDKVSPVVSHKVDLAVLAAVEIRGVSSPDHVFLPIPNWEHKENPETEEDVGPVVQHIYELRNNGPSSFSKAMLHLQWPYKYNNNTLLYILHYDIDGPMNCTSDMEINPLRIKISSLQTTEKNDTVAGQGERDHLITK
T1 sequence (P06756 891-1048 partner limits assumed): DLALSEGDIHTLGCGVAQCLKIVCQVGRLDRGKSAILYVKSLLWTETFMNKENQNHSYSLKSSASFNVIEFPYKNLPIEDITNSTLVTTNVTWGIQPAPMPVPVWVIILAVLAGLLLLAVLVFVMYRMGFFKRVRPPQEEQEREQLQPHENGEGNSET
T1 sequence (P05106 27-788): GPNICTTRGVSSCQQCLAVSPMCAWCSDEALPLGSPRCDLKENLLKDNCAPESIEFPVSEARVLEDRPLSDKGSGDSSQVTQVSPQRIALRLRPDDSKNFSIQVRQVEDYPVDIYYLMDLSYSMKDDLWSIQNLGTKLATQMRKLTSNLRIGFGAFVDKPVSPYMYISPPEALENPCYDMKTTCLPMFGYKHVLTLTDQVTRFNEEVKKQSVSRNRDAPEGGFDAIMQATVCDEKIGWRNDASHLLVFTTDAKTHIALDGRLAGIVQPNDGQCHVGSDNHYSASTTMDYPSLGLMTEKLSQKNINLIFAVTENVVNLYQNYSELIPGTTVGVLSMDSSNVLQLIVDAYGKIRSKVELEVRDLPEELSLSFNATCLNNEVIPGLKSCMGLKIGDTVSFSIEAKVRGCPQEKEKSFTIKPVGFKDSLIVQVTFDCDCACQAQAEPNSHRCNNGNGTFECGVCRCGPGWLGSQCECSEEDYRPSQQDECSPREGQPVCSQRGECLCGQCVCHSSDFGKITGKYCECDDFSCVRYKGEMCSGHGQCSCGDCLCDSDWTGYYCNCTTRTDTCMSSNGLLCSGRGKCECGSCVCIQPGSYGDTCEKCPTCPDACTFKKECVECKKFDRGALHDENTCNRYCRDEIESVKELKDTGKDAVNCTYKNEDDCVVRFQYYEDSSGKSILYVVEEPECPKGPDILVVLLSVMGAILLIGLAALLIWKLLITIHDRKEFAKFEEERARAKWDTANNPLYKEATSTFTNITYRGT
Description: (§1) The method for these binding studies has been described by Barbas et al., Proc. Natl. Acad. Sci., USA, 90:10003-10007 (1993) and Smith et al., J. Biol. Chem., 265:11008-11013 (1990), the disclosures of which are hereby incorporated by reference.
(§2) Briefly, selected purified integrins were separately immobilized in Titertek microtiter wells at a coating concentration of 50 ng per well. After incubation for 18 hr at 4° C., non-specific binding sites on the plate were blocked with 10 mg/ml of bovine serum albumin in Tris-buffered saline. For inhibition studies, a range of antibody was tested for the ability to block the binding of ^125I-vitronectin to αvβ3 and ^125I-fibrinogen to αIIbβ3. The choice to use two different ligands in comparing the inhibitory activity of antibodies was a compromise based on a complicated series of circumstances. […] In contrast, Ca^2+ is essential for the rapid binding of fibrinogen to αIIbβ3. […] Therefore, the optimal ligand was selected for each integrin. This corresponds to vitronectin for αvβ3 and fibrinogen for αIIbβ3. Radiolabeled ligands were used at concentrations of 1 nM and binding was challenged with unlabeled antibody.
(§3) Following a three hour incubation free ligand was removed by washing and bound ligand was detected by gamma counting. The data from this analysis were highly reproducible with the error between data points typically below 11%. Data are expressed as the average of triplicate data points. All experiments were repeated at least four times.

αvβ5 [2] = target: T2, αvβ5 (Homo sapiens, UniProt P06756+P18084); assay: purified ligand-receptor binding assay, inhibition of 125I-vitronectin binding to αvβ5; settings: result in words
T2 construct: human placentas were obtained, cut into small pieces and extracted; from tissue
T2 sequence (P06756 31-889 limits assumed): as the sequence (P06756 31-889 limits assumed) above
T2 sequence (P06756 891-1048 partner limits assumed): as the sequence (P06756 891-1048 partner limits assumed) above
T2 sequence (P18084 24-799): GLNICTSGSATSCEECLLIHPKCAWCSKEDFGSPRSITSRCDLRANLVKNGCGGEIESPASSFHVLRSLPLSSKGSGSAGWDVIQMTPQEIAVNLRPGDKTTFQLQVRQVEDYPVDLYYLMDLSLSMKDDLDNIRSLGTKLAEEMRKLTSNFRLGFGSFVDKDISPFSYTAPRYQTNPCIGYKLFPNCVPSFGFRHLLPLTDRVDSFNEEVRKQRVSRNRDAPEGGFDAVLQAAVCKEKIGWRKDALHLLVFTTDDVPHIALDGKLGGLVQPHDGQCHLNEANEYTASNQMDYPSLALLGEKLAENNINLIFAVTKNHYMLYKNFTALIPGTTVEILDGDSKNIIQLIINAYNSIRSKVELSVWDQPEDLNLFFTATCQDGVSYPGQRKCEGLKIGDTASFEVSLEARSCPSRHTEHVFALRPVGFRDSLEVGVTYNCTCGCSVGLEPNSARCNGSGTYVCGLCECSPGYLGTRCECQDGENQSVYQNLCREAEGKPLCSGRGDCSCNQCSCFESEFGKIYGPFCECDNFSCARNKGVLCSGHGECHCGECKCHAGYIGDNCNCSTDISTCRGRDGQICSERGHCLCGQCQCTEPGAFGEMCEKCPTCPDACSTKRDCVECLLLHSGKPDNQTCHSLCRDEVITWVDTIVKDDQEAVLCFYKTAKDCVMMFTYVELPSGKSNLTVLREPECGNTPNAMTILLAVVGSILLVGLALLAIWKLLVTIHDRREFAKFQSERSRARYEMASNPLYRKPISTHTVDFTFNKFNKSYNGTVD
Description: To determine if the CDR was an appropriate vehicle for displaying and identifying inhibitory peptide motifs, the ability of synthetic peptides derived from the sequence of Fab 9 to block ligand binding to αvβ3, αvβ5 and αIIbβ3 was measured. One peptide synthesized as described below for use in this assay contained a RGD motif positioned on the apex of the CDR3 loop but lacked the remaining flanking regions of the CDR3 and rest of the heavy chain. The sequence of the peptide is listed in SEQ ID NO 12. A peptide having the same sequence but flanked by glycine residues to prevent cyclization was also prepared and has the amino acid residue sequence in SEQ ID NO 68. A longer peptide, having the amino acid residue sequence in SEQ ID NO 4 containing all of the amino acids in SEQ ID NO 12 along with flanking amino acid residues, was also prepared. These assays were performed in order to assess the ability of this particular peptide to inhibit the binding of a high affinity ligand to a receptor, namely the binding of vitronectin to αv/β3 or αv/β5 and fibrinogen to gpIIb/IIIa.
The synthetic peptides from Fab 9 were tested for the ability to antagonize αvβ3 and αIIbβ3 and αvβ5 in purified ligand-receptor binding assays performed as described in Example 5b. […]

αIIbβ3 [3] = target: T3, αIIbβ3 (Homo sapiens, UniProt P05106+P08514); assay: purified ligand-receptor binding assay, inhibition of 125I-fibrinogen binding to αIIbβ3; parameters: from tissue; the procedure itself is in U.S. Pat. No. 5,114,842; settings: for blocking of fibrinogen (ligand) binding to gpIIb/IIIa (αIIbβ3): result in words
Description: as §1, §2, §3

αvβ3 [4] = target: T1, αvβ3; assay: ELISA on αv/β3-coated wells; assay type: binding; settings: result in words, compared to BSA background
Description: (§4) Preliminary ELISA assays were performed to first characterize the binding specificity of the panned phage monoclonal antibodies prepared above toward related integrins. For ELISA, 1 ug/well of the purified VNRs prepared in Example 3A was separately admixed to individual wells of a microtiter plate and maintained at 4 C overnight to allow the protein solution to adhere to the walls of the well. After the maintenance period, the wells were washed once with PBS and thereafter maintained with a solution of 3% BSA to block nonspecific sites on the wells. The plates were maintained at 37 C for 1 hour after which time the plates were inverted and shaked to remove the BSA solution. Soluble Fab heterodimers expressing the synthetic binding site proteins-prepared in Example 3B were then admixed separately to each well and maintained at 37 C for 1 hour to form a immunoreaction products. Following the maintenance period, the wells were washed 10 times with PBS to remove unbound soluble antibody and then maintained with a secondary goat anti-human FAB conjugated to alkaline phosphatase diluted in PBS containing 1% BSA. The wells were maintained at 37 C for 1 hour after which the wells were washed 10 times with PBS followed by development with p-nitrophenyl phosphate.

αvβ5 [5] = target: T2, αvβ5; assay: ELISA on αv/β5-coated wells; assay type: binding; settings: result in words, compared to BSA background
Description: as §4

gpIIb/IIIa [6] = target: T4, gpIIb/IIIa (Homo sapiens, UniProt P05106+P08514); assay: ELISA on gpIIb/IIIa-coated surfaces; assay type: binding; settings: result in words
T4 construct: from tissue; the procedure itself is in U.S. Pat. No. 5,114,842

gpIIb/IIIa [7] = target: T4, gpIIb/IIIa; assay: gpIIb/IIIa sandwich ELISA on fibrinogen-coated plates; assay type: binding
Description: A gpIIb/IIIa sandwich ELISA assay was performed on 10 ug/ml (100 ul) of fibrinogen-coated plates. After blocking the plate as described above, the RGD-expressing, Fab, Mab 19, was admixed with purified gpIIb/IIIa receptor. After allowing the RGD-expressing Fab and receptor admixture to immunoreact with the fibrinogen, the wells were washed and the amount of bound gpIIb/IIIa was determined using an anti-IIIa antibody.

platelets = assay: platelet aggregation assay; assay type: cell-based, human
Description: Platelet aggregation assays were performed as described in U.S. Pat. No. 5,114,842. […] When the concentration of the RGDC2-binding site Fab was decreased by half, the amount of platelet aggregation increased similarly and thus the amount of light transmitted increased. […] All of the initial selection and characterization of the semi-synthetic Fab antibodies of this invention relied largely upon the use of purified integrins. Since the MTF-antibodies blocked the function of αIIbβ3 and have potential therapeutic use in the prevention of thrombosis, the ability of recombinant Fabs to block platelet aggregation was measured as described in Example 4. Washed platelets (1×10^8) were placed in Tyrode's buffer containing 2 mM Ca^2+ and 100 ug/ml of fibrinogen and aggregation was stimulated by addition of 20 uM ADP. Aggregation was measured as light transmission through the platelet suspension using a Scienceo aggregometer.

αIIbβ3 [8] = target: T3, αIIbβ3; settings: solid-phase radioligand binding assays, recently reported; cited from earlier work
αIIbβ3 [9] = target: T3, αIIbβ3; assay: surface plasmon resonance (BIAcore), Fab binding to immobilized αIIbβ3; parameters: from tissue; the procedure itself is in U.S. Pat. No. 5,114,842; settings: using SPR
Description: A comparison of absolute antibody affinities was then performed with surface plasmon resonance, which is a highly accurate means of assessing ligand affinities in real time. See, Altshuh et al., Biochem., 31:6298-6304 (1992); Chaiken et al., Anal. Biochem., 201:197-210 (1992); Eddowes, Biosensors, 3:1-15 (1987); Fagerstam et al., J. Chromatoar., 597:397-410 (1992); Johnsson et al., Anal. Biochem., 198:268-277 (1991); Karlsson et al., J. Immunol. Methods, 145:229-240 (1991); and VanCott et al., J. Immunol. Methods, 146:163-176 (1992), the disclosures of which are hereby incorporated by reference. SPR is a phenomena that occurs when incoming photons interact with electrons in a biosensor chip. […]
The association and dissociation rate constants (k1 and k−1) for semi-synthetic antibodies were obtained from BIAcore measurements as follows. […] At the end of the association phase the flow was changed to buffer without ligand and the change in response unit (RU) was measured as a function of time. […]
To obtain the association rate constant k1, an antibody was passed through the sensor chip containing unoccupied integrin and the response unit as a result of binding is again measured as a function of time. The association rate constant, k1, is calculated as shown in equation 2. k1=[((dRU/dt)/RU)−k−1]/L Equation 2 L is the concentration of ligand. […]

[10] = listed as Fab 9-derived peptide in SEQ ID NO 68

CSFGRGDIRNC (CSFGRGDIRNC-NH2; disulfide 1-11 (inferred); not fully specified) [circularized Fab 9-derived peptide]
blocking of vitronectin (ligand) binding to αvβ3 (αvβ3 [1]; listed as VnRB3-5-derived peptide): inhibits

GSFGRGDIRNG [Lin-9]
peptide concentration reaching maximal inhibition of binding to αv/β3 (αvβ3 [1]): 10^−5 M | blocking of vitronectin (ligand) binding to αvβ3 (αvβ3 [1]): inhibited | blocking of vitronectin (ligand) binding to αvβ3 (αvβ3 [1]; [10]): completely inhibited | blocking of vitronectin binding to αvβ5 (αvβ5 [2]): did not antagonize | blocking of vitronectin binding to αvβ5 (αvβ5 [2]; [10]): No inhibition | peptide concentration reaching maximal inhibition of binding to gpIIb/IIIa (αIIbβ3 [3]): 10^−5 M | blocking of fibrinogen (ligand) binding to gpIIb/IIIa (αIIbβ3) (αIIbβ3 [3]): inhibited | blocking of fibrinogen (ligand) binding to gpIIb/IIIa (αIIbβ3) (αIIbβ3 [3]; [10]): completely inhibited

Mab 8: Fab-displayed RGDC2 binding site VGCPIPRGDWRECYYMDV (SEQ ID NO 8) (Fab-displayed binding site)
binding to αv/β3 (ELISA, immunoreaction) (αvβ3 [4]): bound specifically | binding to αv/β5 (ELISA, immunoreaction) (αvβ5 [5]): not to αv/β5

Mab 19: Fab-displayed RGDC2 binding site VGCGRLRGDDPWCYYMDV (SEQ ID NO 3) (Fab-displayed binding site)
binding to αv/β3 (ELISA, immunoreaction) (αvβ3 [4]): not cross-react | binding to gpIIb/IIIa (ELISA, immunoreaction) (gpIIb/IIIa [6]): specific for gpIIb/IIIa | Fab concentration of maximal inhibition of gpIIb/IIIa binding to fibrinogen (gpIIb/IIIa [7]): 5 µM | blocking of gpIIb/IIIa binding to fibrinogen (gpIIb/IIIa [7]; result in words): blocked the binding of gpIIb/IIIa to fibrinogen in a dose-dependent manner | inhibition of platelet aggregation (platelets; 6.6 uM purified soluble Fab, light transmission): inhibited the aggregation of platelets in a time-dependent manner | inhibition of platelet aggregation compared with murine Fab LIBS-1 (platelets; simultaneously performed assays): equally effective | binding to αv/β5 (ELISA, immunoreaction) (αvβ5 [5]): not cross-react

fibrinogen: natural high affinity ligand of αIIbβ3
association rate constant for binding to αIIbβ3 (αIIbβ3 [8]): 850000 M⁻¹ s⁻¹ | association rate constant for binding to αIIbβ3 (αIIbβ3 [9]): 600000 M⁻¹ s⁻¹

peptides derived from HCDR3 of MTF-32: circular CSFGRTDQRNC (SEQ ID NO 71), linear GCSFGRTDQRNCY (SEQ ID NO 72) [peptide 32]
blocking of vitronectin (ligand) binding to αvβ3 (αvβ3 [1]): did not interfere | blocking of fibrinogen (ligand) binding to gpIIb/IIIa (αIIbβ3) (αIIbβ3 [3]): blocked

peptides derived from HCDR3 of MTF-40: circular CSFGRNDSRNC (SEQ ID NO 69), linear GCSFGRNDSRNCY (SEQ ID NO 70) [peptide 40]
blocking of vitronectin (ligand) binding to αvβ3 (αvβ3 [1]): did not interfere | blocking of fibrinogen (ligand) binding to gpIIb/IIIa (αIIbβ3) (αIIbβ3 [3]): blocked
